Laboratory results: patent publication US20140363428A1 (Chugai, published 2014)

B1: IgG1-F1067 (antibody)
heavy: QVQLQESGPGLVKPSETLSLTCAVSGHSISHDHAWSWVRQPPGEGLEWIGFISYSGITNYNPSLQGRVTISRDNSKNTLYLQMNSLRAEDTAVYYCARSLARTTAMDYWGEGTLVTVSSASTKGPSVFPLAPSSKSTSGGTAALGCLVKDYFPEPVTVSWNSGALTSGVHTFPAVLQSSGLYSLSSVVTVPSSSLGTQTYICNVNHKPSNTKVDKKVEPKSCDKTHTCPPCPAPELLGGPSVFLFPPKPKDTLYISRTPEVTCVVVDVSHEDPEVKFNWYVDGVEVHNAKTKPREEQYNSTYRVVSVLTVLHQDWLNGKEYKCKVSNKALPAPIEKTISKAKGQPREPQVYTLPPSRDELTKNQVSLTCLVKGFYPSDIAVEWESNGQPENNYKTTPPVLDSDGSFFLYSKLTVDKSRWQQGNVFECSVMHEALHYHVTQKSLSLSP
light: not shown
notes: VH3-IgG1 with Fc substitutions (EU numbering) + L(WT)-CK
B2: IgG1-F1068 (antibody)
heavy: QVQLQESGPGLVKPSETLSLTCAVSGHSISHDHAWSWVRQPPGEGLEWIGFISYSGITNYNPSLQGRVTISRDNSKNTLYLQMNSLRAEDTAVYYCARSLARTTAMDYWGEGTLVTVSSASTKGPSVFPLAPSSKSTSGGTAALGCLVKDYFPEPVTVSWNSGALTSGVHTFPAVLQSSGLYSLSSVVTVPSSSLGTQTYICNVNHKPSNTKVDKKVEPKSCDKTHTCPPCPAPELLGGPSVFLFPPKPKDTLYISRTPEVTCVVVDVSHEDPEVKFNWYVDGVEVHNAKTKPREEQYNSTYRVVSVLTVLHQDWLNGKEYKCKVSNKALPAPIEKTISKAKGQPREPQVYTLPPSRDELTKNQVSLTCLVKGFYPSDIAVEWESNGQPENNYKTTPPVLDSDGSFFLYSKLTVDKSRWQQGNVFRCSVMHEALHYHVTQKSLSLSP
light: not shown
notes: as for B1
B3: IgG1-F1069 (antibody)
heavy: QVQLQESGPGLVKPSETLSLTCAVSGHSISHDHAWSWVRQPPGEGLEWIGFISYSGITNYNPSLQGRVTISRDNSKNTLYLQMNSLRAEDTAVYYCARSLARTTAMDYWGEGTLVTVSSASTKGPSVFPLAPSSKSTSGGTAALGCLVKDYFPEPVTVSWNSGALTSGVHTFPAVLQSSGLYSLSSVVTVPSSSLGTQTYICNVNHKPSNTKVDKKVEPKSCDKTHTCPPCPAPELLGGPSVFLFPPKPKDTLYISRTPEVTCVVVDVSHEDPEVKFNWYVDGVEVHNAKTKPREEQYNSTYRVVSVLTVLHQDWLNGKEYKCKVSNKALPAPIEKTISKAKGQPREPQVYTLPPSRDELTKNQVSLTCLVKGFYPSDIAVEWESNGQPENNYKTTPPVLDSDGSFFLYSKLTVDKSRWQQGNVFSCSVMHEALHYHVTEKSLSLSP
light: not shown
notes: as for B1
B4: IgG1-F1070 (antibody)
heavy: QVQLQESGPGLVKPSETLSLTCAVSGHSISHDHAWSWVRQPPGEGLEWIGFISYSGITNYNPSLQGRVTISRDNSKNTLYLQMNSLRAEDTAVYYCARSLARTTAMDYWGEGTLVTVSSASTKGPSVFPLAPSSKSTSGGTAALGCLVKDYFPEPVTVSWNSGALTSGVHTFPAVLQSSGLYSLSSVVTVPSSSLGTQTYICNVNHKPSNTKVDKKVEPKSCDKTHTCPPCPAPELLGGPSVFLFPPKPKDTLYISRTPEVTCVVVDVSHEDPEVKFNWYVDGVEVHNAKTKPREEQYNSTYRVVSVLTVLHQDWLNGKEYKCKVSNKALPAPIEKTISKAKGQPREPQVYTLPPSRDELTKNQVSLTCLVKGFYPSDIAVEWESNGQPENNYKTTPPVLDSDGSFFLYSKLTVDKSRWQQGNVFSCSVMHEALHYHVTRKSLSLSP
light: not shown
notes: as for B1
B5: IgG1-F1071 (antibody)
heavy: QVQLQESGPGLVKPSETLSLTCAVSGHSISHDHAWSWVRQPPGEGLEWIGFISYSGITNYNPSLQGRVTISRDNSKNTLYLQMNSLRAEDTAVYYCARSLARTTAMDYWGEGTLVTVSSASTKGPSVFPLAPSSKSTSGGTAALGCLVKDYFPEPVTVSWNSGALTSGVHTFPAVLQSSGLYSLSSVVTVPSSSLGTQTYICNVNHKPSNTKVDKKVEPKSCDKTHTCPPCPAPELLGGPSVFLFPPKPKDTLYISRTPEVTCVVVDVSHEDPEVKFNWYVDGVEVHNAKTKPREEQYNSTYRVVSVLTVLHQDWLNGKEYKCKVSNKALPAPIEKTISKAKGQPREPQVYTLPPSRDELTKNQVSLTCLVKGFYPSDIAVEWESNGQPENNYKTTPPVLDSDGSFFLYSKLTVDKSRWQQGNVFSCSVMHEALHYHVTSKSLSLSP
light: not shown
notes: as for B1
B6: IgG1-F1072 (antibody)
heavy: QVQLQESGPGLVKPSETLSLTCAVSGHSISHDHAWSWVRQPPGEGLEWIGFISYSGITNYNPSLQGRVTISRDNSKNTLYLQMNSLRAEDTAVYYCARSLARTTAMDYWGEGTLVTVSSASTKGPSVFPLAPSSKSTSGGTAALGCLVKDYFPEPVTVSWNSGALTSGVHTFPAVLQSSGLYSLSSVVTVPSSSLGTQTYICNVNHKPSNTKVDKKVEPKSCDKTHTCPPCPAPELLGGPSVFLFPPKPKDTLYISRTPEVTCVVVDVSHEDPEVKFNWYVDGVEVHNAKTKPREEQYNSTYRVVSVLTVLHQDWLNGKEYKCKVSNKALPAPIEKTISKAKGQPREPQVYTLPPSRDELTKNQVSLTCLVKGFYPSDIAVEWESNGQPENNYKTTPPVLDSDGSFFLYSKLTVDKSRWQQGNVFSCSVMHEALHYHVTQKELSLSP
light: not shown
notes: as for B1
B7: IgG1-F1073 (antibody)
heavy: QVQLQESGPGLVKPSETLSLTCAVSGHSISHDHAWSWVRQPPGEGLEWIGFISYSGITNYNPSLQGRVTISRDNSKNTLYLQMNSLRAEDTAVYYCARSLARTTAMDYWGEGTLVTVSSASTKGPSVFPLAPSSKSTSGGTAALGCLVKDYFPEPVTVSWNSGALTSGVHTFPAVLQSSGLYSLSSVVTVPSSSLGTQTYICNVNHKPSNTKVDKKVEPKSCDKTHTCPPCPAPELLGGPSVFLFPPKPKDTLYISRTPEVTCVVVDVSHEDPEVKFNWYVDGVEVHNAKTKPREEQYNSTYRVVSVLTVLHQDWLNGKEYKCKVSNKALPAPIEKTISKAKGQPREPQVYTLPPSRDELTKNQVSLTCLVKGFYPSDIAVEWESNGQPENNYKTTPPVLDSDGSFFLYSKLTVDKSRWQQGNVFSCSVMHEALHYHVTQKRLSLSP
light: not shown
notes: as for B1
B8: IgG1-F1074 (antibody)
heavy: QVQLQESGPGLVKPSETLSLTCAVSGHSISHDHAWSWVRQPPGEGLEWIGFISYSGITNYNPSLQGRVTISRDNSKNTLYLQMNSLRAEDTAVYYCARSLARTTAMDYWGEGTLVTVSSASTKGPSVFPLAPSSKSTSGGTAALGCLVKDYFPEPVTVSWNSGALTSGVHTFPAVLQSSGLYSLSSVVTVPSSSLGTQTYICNVNHKPSNTKVDKKVEPKSCDKTHTCPPCPAPELLGGPDVFLFPPKPKDTLYISRTPEVTCVVVDVSHEDPEVKFNWYVDGVEVHNAKTKPREEQYNSTYRVVSVLTVLHQDWLNGKEYKCKVSNKALPAPIEKTISKAKGQPREPQVYTLPPSRDELTKNQVSLTCLVKGFYPSDIAVEWESNGQPENNYKTTPPVLDSDGSFFLYSKLTVDKSRWQQGNVFSCSVMHEALHYHVTQKSLSLSP
light: not shown
notes: as for B1
B9: IgG1-F1076 (antibody)
heavy: QVQLQESGPGLVKPSETLSLTCAVSGHSISHDHAWSWVRQPPGEGLEWIGFISYSGITNYNPSLQGRVTISRDNSKNTLYLQMNSLRAEDTAVYYCARSLARTTAMDYWGEGTLVTVSSASTKGPSVFPLAPSSKSTSGGTAALGCLVKDYFPEPVTVSWNSGALTSGVHTFPAVLQSSGLYSLSSVVTVPSSSLGTQTYICNVNHKPSNTKVDKKVEPKSCDKTHTCPPCPAPELLGGPDVFLFPPKPKDTLYISRTPEVTCVVVDVSHEDPEVKFNWYVDGVEVHNAKTKPREEQYNSTYRVVSVLTVLHQDWLNGKEYKCKVSNDAYPAPIEKTISKAKGQPREPQVYTLPPSRDELTKNQVSLTCLVKGFYPSDIAVEWESNGQPENNYKTTPPVLDSDGSFFLYSKLTVDKSRWQQGNVFSCSVMHEALHYHVTQKSLSLSP
light: not shown
notes: as for B1
B10: IgG1-F1077 (antibody)
heavy: QVQLQESGPGLVKPSETLSLTCAVSGHSISHDHAWSWVRQPPGEGLEWIGFISYSGITNYNPSLQGRVTISRDNSKNTLYLQMNSLRAEDTAVYYCARSLARTTAMDYWGEGTLVTVSSASTKGPSVFPLAPSSKSTSGGTAALGCLVKDYFPEPVTVSWNSGALTSGVHTFPAVLQSSGLYSLSSVVTVPSSSLGTQTYICNVNHKPSNTKVDKKVEPKSCDKTHTCPPCPAPELLGGPSVFLFPPKPNDTLYISRTPEVTCVVVDVSHEDPEVKFNWYVDGVEVHNAKTKPREEQYNSTYRVVSVLTVLHQDWLNGKEYKCKVSNKALPAPIEKTISKAKGQPREPQVYTLPPSRDELTKNQVSLTCLVKGFYPSDIAVEWESNGQPENNYKTTPPVLDSDGSFFLYSKLTVDKSRWQQGNVFSCSVMHEALHYHYTQKSLSLSP
light: not shown
notes: as for B1
B11: IgG1-F1079 (antibody)
heavy: QVQLQESGPGLVKPSETLSLTCAVSGHSISHDHAWSWVRQPPGEGLEWIGFISYSGITNYNPSLQGRVTISRDNSKNTLYLQMNSLRAEDTAVYYCARSLARTTAMDYWGEGTLVTVSSASTKGPSVFPLAPSSKSTSGGTAALGCLVKDYFPEPVTVSWNSGALTSGVHTFPAVLQSSGLYSLSSVVTVPSSSLGTQTYICNVNHKPSNTKVDKKVEPKSCDKTHTCPPCPAPELLGGPSVFLFPPKPKDTLYISRTPEVTCVVVDVSHEDPEVKFNWYVDGVEVHNAKTKPREEQYNSTYRVVSVLTVLHQDWLNGKEYKCKVSNKALPAPIEKTISKAKGQPREPQVYTLPPSRDELTKNQVSLTCLVKGFYPSDIAVEWNSSGQPENNYKTTPPVLDSDGSFFLYSKLTVDKSRWQQGNVFSCSVMHEALHYHYTQKSLSLSP
light: not shown
notes: as for B1
B12: IgG1-F1080 (antibody)
heavy: QVQLQESGPGLVKPSETLSLTCAVSGHSISHDHAWSWVRQPPGEGLEWIGFISYSGITNYNPSLQGRVTISRDNSKNTLYLQMNSLRAEDTAVYYCARSLARTTAMDYWGEGTLVTVSSASTKGPSVFPLAPSSKSTSGGTAALGCLVKDYFPEPVTVSWNSGALTSGVHTFPAVLQSSGLYSLSSVVTVPSSSLGTQTYICNVNHKPSNTKVDKKVEPKSCDKTHTCPPCPAPELLGGPSVFLFPPKPKDTLYISRTPEVTCVVVDVSHEDPEVKFNWYVDGVEVHNAKTKPREEQYNSTYRVVSVLTVLHQDWLNGKEYKCKVSNKALPAPIEKTISKAKGQPREPQVYTLPPSRDELTKNQVSLTCLVKGFYPSDIAVEWESNGQPENNYKTTPPVLDSDGSFFLYSKLTVDKSRWQQGNVFNCSVMHEALHYHYTQKSLSLSP
light: not shown
notes: as for B1

What follows are binders tested against T1, soluble human FcRn (heterodimer of FcRn alpha chain and beta2-microglobulin) (human, UniProt P55899 24-297; P61769 21-119) (assay: SPR Biacore T100, antibody captured via protein L, hFcRn analyte, pH 7.0, 25 C;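 further: KD derived from kinetic ka and kd fits of sensorgrams, CM4 sensor chip, sodium phosphate NaCl Tween20 running buffer, buffer-only injection used as reference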).
T1 construct: Expressed in HEK293H and purified on IgG Sepharose; also called hFcRn
T1 sequence (P55899 24-297 limits assumed, chain 1 of 2): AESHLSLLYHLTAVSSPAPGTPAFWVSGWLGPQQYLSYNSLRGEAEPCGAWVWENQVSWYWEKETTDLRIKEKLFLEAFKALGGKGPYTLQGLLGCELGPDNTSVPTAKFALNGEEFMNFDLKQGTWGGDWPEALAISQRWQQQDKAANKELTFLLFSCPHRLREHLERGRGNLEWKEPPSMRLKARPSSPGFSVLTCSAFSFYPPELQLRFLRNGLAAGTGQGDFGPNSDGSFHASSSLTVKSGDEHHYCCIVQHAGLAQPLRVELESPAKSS
T1 sequence (P61769 21-119 limits assumed, chain 2 of 2): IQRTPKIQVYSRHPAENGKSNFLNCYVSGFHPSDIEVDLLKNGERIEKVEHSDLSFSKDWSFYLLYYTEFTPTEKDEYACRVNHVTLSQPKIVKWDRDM

Q: For B1, which Kd is on record?
A: 0.13 µM

Q: For B2, which Kd is on record?
A: 0.17 µM

Q: Which Kd does the source give for B3 here?
A: 0.14 µM

Q: B4 was tested. Which Kd did it give?
A: 0.17 µM

Q: Which Kd does the source give for B5 here?
A: 0.12 µM

Q: For B6, which Kd is on record?
A: 0.13 µM

Q: How did the Kd turn out when B7 was run?
A: 0.13 µM

Q: How did the Kd turn out when B8 was run?
A: 0.13 µM

Q: For B9, which Kd is on record?
A: 0.13 µM

Q: Which Kd does the source give for B10 here?
A: 2 µM

Q: How did the Kd turn out when B11 was run?
A: 0.34 µM

Q: Which Kd does the source give for B12 here?
A: 0.32 µM
